Results taken from patent US20020061531.

How the values were obtained:
[1] = tested on: anti-BPDE-DNA monoclonal antibody 8E11 (Mus musculus); conditions: single (+/-)-anti-BPDE-N2-dG adduct in the SEQ:5 segment; CE/LIF; complex formation with native duplex, 20 ug/mL (printed mg/mL) 8E11
[2] = tested on: anti-BPDE-DNA monoclonal antibody 5D11 (Mus musculus); conditions: slight cross-reaction at 20 ug/mL 5D11

Sequence: CCTTAAGCTTCCTCAACCACTTACCATACTCGAGATTCCCATTATGCATAACCGTCATATGCCGCCTCTGACCTTCCTAGAATTCCATCC (double strand) [TMR-BPDE-90-mer, native duplex]
- binding signal (fold lower than denatured) [1]: 6

Sequence: CCTTAAGCTTCCTCAACCACTTACCATACTCGAGATTCCCATTATGCATAACCGTCATATGCCGCCTCTGACCTTCCTAGAATTCCATCC [TMR control 90-mer (no BPDE), heat-denatured]
- binding signal (% of total peak area) [2]: 2.1
